Our source for the stoichiometry N and Km values is paper PMC5779621.

Data set [1] addresses Fibroblast growth factor receptor (human (endogenous in MCF-7)) (UniProt P11362). In words: Western blot of cell lysates for the receptor dimer.
Substrate in the data set “purified protein”: CC(=O)N[C@H]1[C@H]([C@H](O)[C@H](O)CO)O[C@](OP(=O)(O)OC[C@H]2O[C@@H](n3ccc(N)nc3=O)[C@H](O)[C@@H]2O)(C(=O)O)C[C@@H]1O
In words: purified protein. Particulars: donor substrate; acceptor type II LacNAc.

In data set [1], “Fibroblast growth factor receptor (from UniProt P11362 22-822)” showed a stoichiometry N of 2.

B1: recombinant human ST3Gal-IV (α2,3-sialyltransferase) (Homo sapiens) (protein)
chain: REDRYIELFYFPIPEKKEPCLQGEAESKASKLFGNYSRDQPIFLRLEDYFWVKTPSAYELPYGTKGSEDLLLRVLAITSSSIPKNIQSLRCRRCVVVGNGHRLRNSSLGDAINKYDVVIRLNNAPVAGYEGDVGSKTTMRLFYPESAHFDPKVENNPDTLLVLVAFKAMDFHWIETILSDKKRVRKGFWKQPPLIWDVNPKQIRILNPFFMEIAADKLLSLPMQQPRKIKQKPTTGLLAITLALHLCDLVHIAGFGYPDAYNKKQTIHYYEQITLKSMAGSGHNVSQEALAIKRMLEMGAIKNLTSF
As for B1, the Km in “purified protein” was 73.4 µM.

In general, stoichiometry N refers to a count of units in the complex or per binding partner. Usually Km stands for the substrate concentration at which the rate is half of its maximum.
